Measurements as given in patent US20230212587A1, “Mutant Hydroxyphenylpyruvate Dioxygenase Polypeptide, Encoding Gene Thereof and Use Therefor” (Beijing Dabeinong Biotechnology Co., Ltd., priority 2019, published 2023).

Test system: Arabidopsis thaliana T1 plants
Test: Topramezone tolerance of transgenic Arabidopsis thaliana T1 plants (pesticide damage grade by bleached leaf area, score, resistance evaluation)
Assay type: in vivo
Settings: for Classification and statistics of pesticide damage grade Grade 0 / Classification and statistics of pesticide damage grade Grade 1 / Classification and statistics of pesticide damage grade Grade 2 / Classification and statistics of pesticide damage grade Grade 3: number of plants (of 16) in this grade; for Classification and statistics of pesticide damage grade: Grade 0 / Classification and statistics of pesticide damage grade: Grade 1 / Classification and statistics of pesticide damage grade: Grade 2 / Classification and statistics of pesticide damage grade: Grade 3: number of plants
Outline: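 Herbicide tolerance was judged per plant on a bleaching scale (grade 0 no bleaching to grade 3 fully bleached) 7 DAT. Topramezone doses were 0, 25, 50 and 100 g ai/ha on 18-day-old T1 and wild-type plants.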

[1] = HPPDs from different species, topramezone 25 g ai/ha (1x), 7 DAT
[2] = HPPDs from different species, topramezone 100 g ai/ha (4x), 7 DAT
[3] = HPPDs from different species, score for pesticide damage 0-100, topramezone 25 g ai/ha (1x), 7 DAT
[4] = HPPDs from different species, score for pesticide damage 0-100, topramezone 100 g ai/ha (4x), 7 DAT
[5] = topramezone 25 g ai/ha (1x), HPPDs from ecotypes of Triticum aestivum
[6] = topramezone 100 g ai/ha (4x), HPPDs from ecotypes of Triticum aestivum

Molecule	Classification and statistics of pesticide damage grade Grade 0 [1]	Classification and statistics of pesticide damage grade Grade 1 [1]	Classification and statistics of pesticide damage grade Grade 2 [1]	Classification and statistics of pesticide damage grade Grade 3 [1]	Classification and statistics of pesticide damage grade Grade 0 [2]	Classification and statistics of pesticide damage grade Grade 1 [2]	Classification and statistics of pesticide damage grade Grade 2 [2]	Classification and statistics of pesticide damage grade Grade 3 [2]	Scores [3]	Scores [4]	Resistance evaluation [1]	Resistance evaluation [2]	also measured
BvHPPD-02: native Beta vulgaris HPPD, SEQ ID NO: 105 (protein, listed as Beta vulgaris, BvHPPD Amino Acid Sequence) MGTLSPQPQTSPSQFKLVGYSNFIRVNPLSDLFPVKRFHHVEFWCGDATNVSRRFSWGLGMPIVAKSDLSTGNSVHASYLLRSGELHFLFTSPYSPSLSSPSSATIPTFSFSLFTSFLTSHGLAVRAVAVEVQDAEAAFHISVSNGASPVSPPIRLHDGVVLSEVHLYGDVVLRYVSTSSVVDGIFLPGFEEMLGESSFQELDFGLRRLDHAVGNVPELAPAIEYVKKFTGFHEFAEFTTEDVGTSESGLNSAVVANNDETVLFPMNEPVYGTKRKSQIQTYLEHNEGAGVQHLALMSEDIFWTLREMRKRSGLGGFEFMPSPPPTYYRNLRNRAADVLSEEQMKECEELGILVDKDDQGTLLQIFTKPIGDRPTMFIEIIQRIGCMMKDEEGKVYQKGGCGGFGKGNFSELFKSIEEYEKTLERKPIADTNAT	0	0	0	16	0	0	0	16	100	100	non-resistant (non-resistant plants (scores 68-100))	non-resistant (non-resistant plants (scores 68-100))	
BvHPPDm-F372A-02: Beta vulgaris HPPD mutant F372A, SEQ ID NO: 108 (protein, BvHPPDm-F372A Amino Acid Sequence) MGTLSPQPQTSPSQFKLVGYSNFIRVNPLSDLFPVKRFHHVEFWCGDATNVSRRFSWGLGMPIVAKSDLSTGNSVHASYLLRSGELHFLFTSPYSPSLSSPSSATIPTFSFSLFTSFLTSHGLAVRAVAVEVQDAEAAFHISVSNGASPVSPPIRLHDGVVLSEVHLYGDVVLRYVSTSSVVDGIFLPGFEEMLGESSFQELDFGLRRLDHAVGNVPELAPAIEYVKKFTGFHEFAEFTTEDVGTSESGLNSAVVANNDETVLFPMNEPVYGTKRKSQIQTYLEHNEGAGVQHLALMSEDIFWTLREMRKRSGLGGFEFMPSPPPTYYRNLRNRAADVLSEEQMKECEELGILVDKDDQGTLLQIATKPIGDRPTMFIEIIQRIGCMMKDEEGKVYQKGGCGGFGKGNFSELFKSIEEYEKTLERKPIADTNAT	0	6	10	0	0	0	4	12	54	92	poorly resistant (poorly resistant plants (scores 34-67))	non-resistant (non-resistant plants (scores 68-100))	
MsHPPD-02: native Medicago sativa HPPD, SEQ ID NO: 99 (protein, listed as Medicago sativa, MsHPPD Amino Acid Sequence) MAIETETQTQTGFKLVGFKNFVRANPKSDRFKVKRFHHVEFWCTDATNTARRFSHGLGMPIVAKSDLSTGNQTHASYLLRSGDLNFLFSAAYSPSISLSSPSSTAAIPTFSASNCFSFSASHGLAVRAVAVEVEDAELAFTTSVNNGAIPSSPPVILENHVKLAEVRLYGDVVLRYVSYNDPNPNQNPNLLFLPGFERVSDESSNSSLDFGIRRLDHAVGNVPELSSAVKYVKDFTGFHEFAEFTAEDVGTSESGLNSVVLANNEETVLLPMNEPVYGTKRKSQIETYLEHNEGAGLQHLALKSEDIFRTLREMRKRSGVGGFEFMPSPPVTYYRNLKNRVGDVLSDEQIKECEELGILVDRDDQGTLLQIFTKPIGDRPTIFIEIIQRVGCMLKDEEGKEYQKGGCGGFGKGNFSELFKSIEEYEKTLETRRTA	0	0	0	16	0	0	0	16	100	100	non-resistant (non-resistant plants (scores 68-100))	non-resistant (non-resistant plants (scores 68-100))	
MsHPPDm-F372A-02: Medicago sativa HPPD mutant F372A, SEQ ID NO: 102 (protein, MsHPPDm-F372A Amino Acid Sequence) MAIETETQTQTGFKLVGFKNFVRANPKSDRFKVKRFHHVEFWCTDATNTARRFSHGLGMPIVAKSDLSTGNQTHASYLLRSGDLNFLFSAAYSPSISLSSPSSTAAIPTFSASNCFSFSASHGLAVRAVAVEVEDAELAFTTSVNNGAIPSSPPVILENHVKLAEVRLYGDVVLRYVSYNDPNPNQNPNLLFLPGFERVSDESSNSSLDFGIRRLDHAVGNVPELSSAVKYVKDFTGFHEFAEFTAEDVGTSESGLNSVVLANNEETVLLPMNEPVYGTKRKSQIETYLEHNEGAGLQHLALKSEDIFRTLREMRKRSGVGGFEFMPSPPVTYYRNLKNRVGDVLSDEQIKECEELGILVDRDDQGTLLQIATKPIGDRPTIFIEIIQRVGCMLKDEEGKEYQKGGCGGFGKGNFSELFKSIEEYEKTLETRRTA	5	7	4	0	0	4	9	3	31	65	moderately resistant (moderately resistant plants (scores 16-33))	poorly resistant (poorly resistant plants (scores 34-67))	
NtHPPD-02: native Nicotiana tabacum HPPD, SEQ ID NO: 111 (protein, listed as Nicotiana tabacum, NtHPPD Amino Acid Sequence) MGKLETVTTTSAAAADDSSELTTNFKLVGFKNFIRTNPRSDFFSVKSFHHIEFWCGDATNTARRFSWSLGMPIAAKSDLSTGNSVHASYLLRPVSGSLQFLFTAPYSPSISTPSSAAIPSFSTSTHRSFTTTHGLGVRAVALEVENAYTAFSASVSRGAKPMFEPVTIDEQVAMAEVHLYGDVVLRFVSYLKDADNLVFLPGFEAMDETASYKELDYGIRRLDHAVGNVPELGPVVDYIKRFTGFHEFAEFTAEDVGTAESGLNSMVLANNDETVLLPLNEPVYGTKRKSQIQTYLEHNEGAGVQHLALVTEDIFKTLTEMRKRSGVGGFEFMPSPPPTYYKNLKNRAGDVLSDEQILACEELGILVDRDDQGTLLQIFTKPVGDRPTIFIEIIQRIGCMLKDGKGQVYQKGGCGGFGKGNFSELFRSIEEYEKTLEAKQANQVAAA	0	0	0	16	0	0	0	16	100	100	non-resistant (non-resistant plants (scores 68-100))	non-resistant (non-resistant plants (scores 68-100))	
TaHPPD1m-F372A-02: Triticum aestivum ecotype 1 HPPD mutant F372A, SEQ ID NO: 180 (protein, TaHPPD1m-F372A Amino Acid Sequence) MMNAHANLALAALAFPAHMPNSKSSHIRSRRTRRPLLPLTMAAHPPIRTNIGMSTHGSASGGGEQAGISSTDRFRMIDFHHVEFWCADAASAAARFSFGLGVPLAAESGLSTGNTAHASHLLHSRSGSLALLFSAPYAQGDAVTASVPSFDADAARRFTADHGLAVRAMAVRVPDAGEAFRTSVDAGARPSFAPAELGHGFELAEVQLYGDVVLRFVSHPDDTAIPFLPGFGSVPSSGATPDYGLTRFDHIVGDVPHLAPVAAYIAGFTGFHEFSRFTADQVGTAESSLNVVVLANNSENVLLTVVEPVHGTKRRSQVQTYLDHHGGPGVQHLAMASNDVLGTLRKIRGRSTMGGFELLPPPPASYYDDVRRRAGDVLSEAQIKGCQELGVRVDKDDHGGVVLQIATKAAGDRPTLLLEFIQRIGCMDKDENGQEYQRGGCGGFGQGNVTELFKSIEDYEKSLDASARLAA													Resistance evaluation [5]: highly resistant (highly resistant plants (scores 0-15)); Scores [5]: 0; Classification and statistics of pesticide damage grade: Grade 0 [5]: 16; Classification and statistics of pesticide damage grade: Grade 1 [5]: 0; Classification and statistics of pesticide damage grade: Grade 2 [5]: 0; Classification and statistics of pesticide damage grade: Grade 3 [5]: 0; Resistance evaluation [6]: highly resistant (highly resistant plants (scores 0-15)); Scores [6]: 2; Classification and statistics of pesticide damage grade: Grade 0 [6]: 15; Classification and statistics of pesticide damage grade: Grade 1 [6]: 1; Classification and statistics of pesticide damage grade: Grade 2 [6]: 0; Classification and statistics of pesticide damage grade: Grade 3 [6]: 0
